Earlier results in patent publication US20250346885A1, “SYSTEMS AND METHODS FOR TARGETED CONTINUOUS GENOME MUTAGENESIS” (The Broad Institute, Inc., priority 2023, published 2025).

System: double-stranded DNA
Details: average base pairs unwound in a single binding event; cited from earlier work

B1: UvrD: E. coli helicase (protein, UniProt P03018 1-720, looked up)
DNA helicase II: MDVSYLLDSLNDKQREAVAAPRSNLLVLAGAGSGKTRVLVHRIAWLMSVENCSPYSIMAVTFTNKAAAEMRHRIGQLMGTSQGGMWVGTFHGLAHRLLRAHHMDANLPQDFQILDSEDQLRLLKRLIKAMNLDEKQWPPRQAMWYINSQKDEGLRPHHIQSYGNPVEQTWQKVYQAYQEACDRAGLVDFAELLLRAHELWLNKPHILQHYRERFTNILVDEFQDTNNIQYAWIRLLAGDTGKVMIVGDDDQSIYGWRGAQVENIQRFLNDFPGAETIRLEQNYRSTSNILSAANALIENNNGRLGKKLWTDGADGEPISLYCAFNELDEARFVVNRIKTWQDNGGALAECAILYRSNAQSRVLEEALLQASMPYRIYGGMRFFERQEIKDALSYLRLIANRNDDAAFERVVNTPTRGIGDRTLDVVRQTSRDRQLTLWQACRELLQEKALAGRAASALQRFMELIDALAQETADMPLHVQTDRVIKDSGLRTMYEQEKGEKGQTRIENLEELVTATRQFSYNEEDEDLMPLQAFLSHAALEAGEGQADTWQDAVQLMTLHSAKGLEFPQVFIVGMEEGMFPSQMSLDEGGRLEEERRLAYVGVTRAMQKLTLTYAETRRLYGKEVYHRPSRFIGELPEECVEEVRLRATVSRPVSHQRMGTPMVENDSGYKLGQRVRHAKFGEGTIVNMEGSGEHSRLQVAFQGQGIKWLVAAYARLESV
**Q.** Which processivity range does the source give for B1 here?
**A.** Its processivity range is 30-40 base pairs.

B2: TraI: E. coli helicase (protein)
chain: MAKIHMVLQGKGGVGKSAIAAIIAQYKMDKGQTPLCIDTDPVNATFEGYKALNVRRLNIMAGDEINSRNFDTLVELIAPTKDDVVIDNGASSFVPLSHYLISNQVPALLQEMGHELVIHTVVTGGQALLDTVSGFAQLASQFPAEALFVVWLNPYWGPIEHEGKSFEQMKAYTANKARVSSIIQIPALKEETYGRDFSDMLQERLTFDQALADESLTIMTRQRLKIVRRGLFEQLDAAAVL
**Q.** With B2 as the molecule, how does the processivity range read?
**A.** The processivity range was “at least 850 base pairs”.

B3: Rep: helicase with short-range processivity (protein, UniProt P09980 1-673, looked up)
ATP-dependent DNA helicase Rep: MRLNPGQQQAVEFVTGPCLVLAGAGSGKTRVITNKIAHLIRGCGYQARHIAAVTFTNKAAREMKERVGQTLGRKEARGLMISTFHTLGLDIIKREYAALGMKANFSLFDDTDQLALLKELTEGLIEDDKVLLQQLISTISNWKNDLKTPSQAAASAIGERDRIFAHCYGLYDAHLKACNVLDFDDLILLPTLLLQRNEEVRKRWQNKIRYLLVDEYQDTNTSQYELVKLLVGSRARFTVVGDDDQSIYSWRGARPQNLVLLSQDFPALKVIKLEQNYRSSGRILKAANILIANNPHVFEKRLFSELGYGAELKVLSANNEEHEAERVTGELIAHHFVNKTQYKDYAILYRGNHQSRVFEKFLMQNRIPYKISGGTSFFSRPEIKDLLAYLRVLTNPDDDSAFLRIVNTPKREIGPATLKKLGEWAMTRNKSMFTASFDMGLSQTLSGRGYEALTRFTHWLAEIQRLAEREPIAAVRDLIHGMDYESWLYETSPSPKAAEMRMKNVNQLFSWMTEMLEGSELDEPMTLTQVVTRFTLRDMMERGESEEELDQVQLMTLHASKGLEFPYVYMVGMEEGFLPHQSSIDEDNIDEERRLAYVGITRAQKELTFTLCKERRQYGELVRPEPSRFLLELPQDDLIWEQERKVVSAEERMQKGQSHLANLKAMMAAKRGK
**Q.** With B3 as the molecule, how does the processivity range read?
**A.** Its processivity range is 30-50 base pairs.
